Data reported in publication PMC11822720.

Target: Centrolobium microchaete seed lectin (Centrolobium microchaete)
Assay: crystal structure; CML co-crystallised with 5 mM MDM; 200 mM ammonium sulfate, 100 mM HEPES pH 7.5, 25% PEG 3350; space group C121, one dimer per asymmetric unit; dimer also checked by PISA

stoichiometry N: 2
Substance: Centrolobium microchaete seed lectin (natural protein)
